# Results: paper PMC4288178, “CRISPR RNA binding and DNA target recognition by purified Cascade complexes from Escherichia coli”
# T1: Cascade- (crRNA-free Cse1-Cse2-Cas7-Cas5-Cas6e) (Escherichia coli (K12; expressed in …, UniProt Q46901;P76632;Q46899;Q46898;Q46897 1-502;1-160;1-363;1-224;1-199)
# T1 sequence 1: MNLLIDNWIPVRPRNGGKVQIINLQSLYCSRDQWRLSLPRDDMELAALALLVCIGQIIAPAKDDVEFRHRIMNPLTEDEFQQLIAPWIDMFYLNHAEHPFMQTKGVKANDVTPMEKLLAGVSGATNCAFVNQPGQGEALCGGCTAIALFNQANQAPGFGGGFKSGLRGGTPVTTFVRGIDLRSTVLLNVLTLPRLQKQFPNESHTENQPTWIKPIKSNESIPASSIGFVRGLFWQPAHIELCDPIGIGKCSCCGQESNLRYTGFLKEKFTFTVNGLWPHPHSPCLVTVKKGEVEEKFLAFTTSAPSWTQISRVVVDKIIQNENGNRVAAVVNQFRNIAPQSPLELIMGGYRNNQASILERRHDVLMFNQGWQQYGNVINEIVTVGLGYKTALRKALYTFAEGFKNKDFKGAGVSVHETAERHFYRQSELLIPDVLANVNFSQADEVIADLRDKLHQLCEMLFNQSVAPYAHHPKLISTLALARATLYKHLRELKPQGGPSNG
# T1 sequence 2: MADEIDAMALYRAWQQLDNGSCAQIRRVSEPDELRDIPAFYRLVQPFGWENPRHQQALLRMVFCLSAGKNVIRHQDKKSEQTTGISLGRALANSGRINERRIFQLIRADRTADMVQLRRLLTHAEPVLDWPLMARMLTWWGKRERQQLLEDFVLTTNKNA
# T1 sequence 3: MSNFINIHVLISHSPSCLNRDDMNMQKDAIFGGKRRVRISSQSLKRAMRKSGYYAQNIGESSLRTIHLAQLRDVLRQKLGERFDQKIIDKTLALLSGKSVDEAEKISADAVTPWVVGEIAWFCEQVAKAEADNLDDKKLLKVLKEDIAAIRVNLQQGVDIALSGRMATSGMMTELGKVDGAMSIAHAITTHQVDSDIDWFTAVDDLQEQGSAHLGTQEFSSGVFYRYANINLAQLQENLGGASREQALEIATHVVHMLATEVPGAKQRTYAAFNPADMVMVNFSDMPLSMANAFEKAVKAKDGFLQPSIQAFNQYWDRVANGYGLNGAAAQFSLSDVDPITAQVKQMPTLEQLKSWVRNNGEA
# T1 sequence 4: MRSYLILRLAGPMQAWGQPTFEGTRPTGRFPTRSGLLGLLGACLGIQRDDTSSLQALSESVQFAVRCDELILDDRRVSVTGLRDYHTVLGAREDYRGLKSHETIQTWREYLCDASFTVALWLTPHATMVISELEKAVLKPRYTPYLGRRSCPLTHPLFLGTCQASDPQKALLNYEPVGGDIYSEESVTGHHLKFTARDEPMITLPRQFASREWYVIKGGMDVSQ
# T1 sequence 5: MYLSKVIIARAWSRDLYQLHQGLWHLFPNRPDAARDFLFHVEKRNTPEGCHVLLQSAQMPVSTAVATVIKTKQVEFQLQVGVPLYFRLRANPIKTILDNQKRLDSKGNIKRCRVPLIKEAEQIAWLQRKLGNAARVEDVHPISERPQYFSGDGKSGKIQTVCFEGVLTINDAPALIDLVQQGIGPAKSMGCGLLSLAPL
# Molecular target: T1, Cascade- (crRNA-free …)
# Test: EMSA; EMSA: 20 mM Tris-HCl pH 8, 20 mM NaCl, 10 nM 32P probe, 30 min at 30 or 37 C, 6% native PAGE; loading 10 min at 30 C with crRNA (0.5 uM in Fig 3). Kd values are printed only in Fig 5A (not in the material)
# Conditions: protein: recombinant; tags: N-terminal 6His on Cse1 (CasA); copies: 1;2;6;1;1; label: 5'-32P; 3' handle hairpin
row,Binder,binding result
1,"crRNA2 (-8/+21), no cyclic phosphate (structured_RNA, no 2',3'-cyclic phosphate) RNA: AUAAACCGCUGUCUUUCGCUGCUGAGGGUGACGAUCCGCCGAGUUCCCCGCGCCAGCGGGG",binds

# Same assay, conditions: protein: recombinant; tags: N-terminal 6His on Cse1 (CasA); copies: 1;2;6;1;1; label: DNA 5'-32P; guide + blunt duplex
row,Binder,binding result
1,"crRNA2 + g8 dsDNA (mixed, no 2',3'-cyclic phosphate on crRNA) RNA: AUAAACCGCUGUCUUUCGCUGCUGAGGGUGACGAUCCGCCGAGUUCCCCGCGCCAGCGGGG DNA 1: CAGGGAGTTAAAGGCCGCTTTTGCGGGATCGTCACCCTCAGCAGCGAAAGACAGCATCGGAACGAGGGTAGCAACGGCT DNA 2: AGCCGTTGCTACCCTCGTTCCGATGCTGTCTTTCGCTGCTGAGGGTGACGATCCCGCAAAAGCGGCCTTTAACTCCCTG",binds
2,crRNA7 (-8/+1G) + g8 dsDNA (mixed) RNA: AUAAACCGCUGUCUUUCGCUGCUGAGGGUGACGAUCCGCCG DNA 1: CAGGGAGTTAAAGGCCGCTTTTGCGGGATCGTCACCCTCAGCAGCGAAAGACAGCATCGGAACGAGGGTAGCAACGGCT DNA 2: AGCCGTTGCTACCCTCGTTCCGATGCTGTCTTTCGCTGCTGAGGGTGACGATCCCGCAAAAGCGGCCTTTAACTCCCTG,binds
3,crRNA7 (-6/+5) + g8 dsDNA (mixed) RNA: AAACCGCUGUCUUUCGCUGCUGAGGGUGACGAUCCGCCGAGUU DNA 1: CAGGGAGTTAAAGGCCGCTTTTGCGGGATCGTCACCCTCAGCAGCGAAAGACAGCATCGGAACGAGGGTAGCAACGGCT DNA 2: AGCCGTTGCTACCCTCGTTCCGATGCTGTCTTTCGCTGCTGAGGGTGACGATCCCGCAAAAGCGGCCTTTAACTCCCTG,no binding
4,poly-A handle crRNA9 + g8 dsDNA (mixed) RNA: AAAAAAAACUGUCUUUCGCUGCUGAGGGUGACGAUCCGCCGAGUU DNA 1: CAGGGAGTTAAAGGCCGCTTTTGCGGGATCGTCACCCTCAGCAGCGAAAGACAGCATCGGAACGAGGGTAGCAACGGCT DNA 2: AGCCGTTGCTACCCTCGTTCCGATGCTGTCTTTCGCTGCTGAGGGTGACGATCCCGCAAAAGCGGCCTTTAACTCCCTG,no binding
5,crRNA7 (-8/+1A) + g8 dsDNA (mixed) RNA: AUAAACCGCUGUCUUUCGCUGCUGAGGGUGACGAUCCGCCA DNA 1: CAGGGAGTTAAAGGCCGCTTTTGCGGGATCGTCACCCTCAGCAGCGAAAGACAGCATCGGAACGAGGGTAGCAACGGCT DNA 2: AGCCGTTGCTACCCTCGTTCCGATGCTGTCTTTCGCTGCTGAGGGTGACGATCCCGCAAAAGCGGCCTTTAACTCCCTG,binds
6,crRNA7 (-8/+1U) + g8 dsDNA (mixed) RNA: AUAAACCGCUGUCUUUCGCUGCUGAGGGUGACGAUCCGCCU DNA 1: CAGGGAGTTAAAGGCCGCTTTTGCGGGATCGTCACCCTCAGCAGCGAAAGACAGCATCGGAACGAGGGTAGCAACGGCT DNA 2: AGCCGTTGCTACCCTCGTTCCGATGCTGTCTTTCGCTGCTGAGGGTGACGATCCCGCAAAAGCGGCCTTTAACTCCCTG,binds
7,crRNA7 (-8/+1C) + g8 dsDNA (mixed) RNA: AUAAACCGCUGUCUUUCGCUGCUGAGGGUGACGAUCCGCCC DNA 1: CAGGGAGTTAAAGGCCGCTTTTGCGGGATCGTCACCCTCAGCAGCGAAAGACAGCATCGGAACGAGGGTAGCAACGGCT DNA 2: AGCCGTTGCTACCCTCGTTCCGATGCTGTCTTTCGCTGCTGAGGGTGACGATCCCGCAAAAGCGGCCTTTAACTCCCTG,binds
8,poly-C handle crRNA + g8 dsDNA (mixed) RNA: CCCCCCCCCUGUCUUUCGCUGCUGAGGGUGACGAUCCGCCGAGUU DNA 1: CAGGGAGTTAAAGGCCGCTTTTGCGGGATCGTCACCCTCAGCAGCGAAAGACAGCATCGGAACGAGGGTAGCAACGGCT DNA 2: AGCCGTTGCTACCCTCGTTCCGATGCTGTCTTTCGCTGCTGAGGGTGACGATCCCGCAAAAGCGGCCTTTAACTCCCTG,no binding
9,crRNA7 (-7/+5) + g8 dsDNA (mixed) RNA: UAAACCGCUGUCUUUCGCUGCUGAGGGUGACGAUCCGCCGAGUU DNA 1: CAGGGAGTTAAAGGCCGCTTTTGCGGGATCGTCACCCTCAGCAGCGAAAGACAGCATCGGAACGAGGGTAGCAACGGCT DNA 2: AGCCGTTGCTACCCTCGTTCCGATGCTGTCTTTCGCTGCTGAGGGTGACGATCCCGCAAAAGCGGCCTTTAACTCCCTG,no binding

# Molecular target: T1, Cascade- (crRNA-free …)
# Test: EMSA; detectable binding; EMSA: 20 mM Tris-HCl pH 8, 20 mM NaCl, 10 nM 32P probe, 30 min at 30 or 37 C, 6% native PAGE; loading 10 min at 30 C with crRNA (0.5 uM in Fig 3). Kd values are printed only in Fig 5A (not in the material)
# Conditions: protein: recombinant; tags: N-terminal 6His on Cse1 (CasA); copies: 1;2;6;1;1; label: 5'-32P
row,Binder,binding result
1,crRNA11 (-8/+18) (ssRNA) RNA: AUAAACCGCUGUCUUUCGCUGCUGAGGGUGACGAUCCGCCGAGUUCCCCGCGCCAGCG,binds
2,crRNA12 (-8/+11) (ssRNA) RNA: AUAAACCGCUGUCUUUCGCUGCUGAGGGUGACGAUCCGCCGAGUUCCCCGC,binds
3,AUAAACCGCUGUCUUUCGCUGCUGAGGGUGACGAUCCGCCGAGUUCCCC (ssRNA) [crRNA13 (-8/+9)],binds

# Molecular target: T1, Cascade- (crRNA-free …)
# Test: EMSA; affinity slightly lower than crRNA1; EMSA: 20 mM Tris-HCl pH 8, 20 mM NaCl, 10 nM 32P probe, 30 min at 30 or 37 C, 6% native PAGE; loading 10 min at 30 C with crRNA (0.5 uM in Fig 3). Kd values are printed only in Fig 5A (not in the material)
# Conditions: protein: recombinant; tags: N-terminal 6His on Cse1 (CasA); copies: 1;2;6;1;1; label: 5'-32P
row,Binder,binding result
1,AUAAACCGCUGUCUUUCGCUGCUGAGGGUGACGAUCCGCCGAGUU (ssRNA) [crRNA7 (-8/+5)],binds

# Same assay, conditions: protein: recombinant; tags: N-terminal 6His on Cse1 (CasA); copies: 1;2;6;1;1; label: DNA 5'-32P; guide + blunt duplex
row,Binder,binding result
1,crRNA7 (-8/+5) + g8 dsDNA (mixed) RNA: AUAAACCGCUGUCUUUCGCUGCUGAGGGUGACGAUCCGCCGAGUU DNA 1: CAGGGAGTTAAAGGCCGCTTTTGCGGGATCGTCACCCTCAGCAGCGAAAGACAGCATCGGAACGAGGGTAGCAACGGCT DNA 2: AGCCGTTGCTACCCTCGTTCCGATGCTGTCTTTCGCTGCTGAGGGTGACGATCCCGCAAAAGCGGCCTTTAACTCCCTG,binds
